The record followed here is paper PMC7219890 (2020).

The assay deals with T1, Mical-1 (Homo sapiens, UniProt Q8TDZ2).
T1 chain: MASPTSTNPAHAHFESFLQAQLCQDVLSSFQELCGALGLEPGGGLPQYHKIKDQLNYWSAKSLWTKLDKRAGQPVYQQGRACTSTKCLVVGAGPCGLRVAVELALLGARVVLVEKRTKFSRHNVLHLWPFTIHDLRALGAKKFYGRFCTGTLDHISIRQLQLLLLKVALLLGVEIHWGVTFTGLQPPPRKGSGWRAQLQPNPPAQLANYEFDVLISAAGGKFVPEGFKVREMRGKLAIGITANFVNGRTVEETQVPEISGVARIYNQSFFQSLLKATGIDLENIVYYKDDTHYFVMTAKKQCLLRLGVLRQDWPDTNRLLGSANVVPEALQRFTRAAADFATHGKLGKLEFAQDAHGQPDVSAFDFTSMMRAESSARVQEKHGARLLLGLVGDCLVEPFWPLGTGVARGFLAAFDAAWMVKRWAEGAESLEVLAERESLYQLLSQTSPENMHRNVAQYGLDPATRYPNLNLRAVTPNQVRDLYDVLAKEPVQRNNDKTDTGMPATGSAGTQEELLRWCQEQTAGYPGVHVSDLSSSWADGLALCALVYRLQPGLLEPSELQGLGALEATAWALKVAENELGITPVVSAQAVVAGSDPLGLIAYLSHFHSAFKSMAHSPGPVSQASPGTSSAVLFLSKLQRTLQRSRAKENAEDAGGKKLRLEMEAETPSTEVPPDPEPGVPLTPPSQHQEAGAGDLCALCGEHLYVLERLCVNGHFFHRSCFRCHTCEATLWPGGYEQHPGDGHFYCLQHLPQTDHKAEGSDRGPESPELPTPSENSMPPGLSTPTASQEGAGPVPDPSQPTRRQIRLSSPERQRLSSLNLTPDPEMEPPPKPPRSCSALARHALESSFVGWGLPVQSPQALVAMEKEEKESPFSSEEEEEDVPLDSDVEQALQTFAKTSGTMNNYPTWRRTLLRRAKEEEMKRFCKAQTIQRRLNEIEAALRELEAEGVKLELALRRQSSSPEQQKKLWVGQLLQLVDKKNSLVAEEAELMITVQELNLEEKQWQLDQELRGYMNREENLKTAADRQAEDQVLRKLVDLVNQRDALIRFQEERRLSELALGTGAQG
As to the kind of experiment: ITC. (ITC needs no label: the signal is the heat of the interaction.)

B1: Rab8A 6-176 (protein)
chain: DYLFKLLLIGDSGVGKTCVLFRFSEDAFNSTFISTIGIDFKIRTIELDGKRIKLQIWDTAGQERFRTITTAYYRGAMGIMLVYDITNEKSFDNIRNWIRNIEEHASADVEKMILGNKCDVNDKRQVSKERGEKLALDYGIKFMETSAKANINVENAFFTLARDIKAKMDKK
modifications: GppNHp-bound, C-terminal His6 tag on Rab8A
Usually Kd stands for a measure of binding affinity in units of concentration. Higher therefore signals a looser complex. As for B1, the Kd worked out at 923 nM.

B2: Rab8A 6-176 (protein)
chain: B1 chain
modifications: phosphoSer111 Rab8A, GppNHp-bound, C-terminal His6 tag on Rab8A
In turn, B2 registered a Kd of 913 nM.
